Assay results: the nanobody polyreactivity screen of Harvey et al. (2022)

Experiment: yeast display, Sf9 membrane polyspecificity reagent, FACS + sequencing; frameworks hold sequencing errors
In short: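 Nanobodies from a synthetic yeast display library (Saccharomyces cerevisiae BJ5465), induced 36–48 hours with galactose, were stained 1 hour at 4 °C with 10% biotinylated, detergent-solubilized Sf9 membrane reagent, enriched on streptavidin microbeads, then FACS-sorted. Anti-HA (expression) and streptavidin (reagent binding) fluorescence set low and high (top ~1%) gates. Polyreactivity labels come from the gate of origin. Genes were colony-PCR amplified, MiSeq 2 × 250 sequenced and filtered by CDR length.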

Sequence	polyreactivity (PSR sort gate)
QVQLVESGGGLVQAGGSLRLSCAASGSNFKSYAKGWYRQAPGKERELVAAITYRGGSTYYADSVKGRFTISRDNAKNTVSLQMNSLKPEDTAVYYCAADYQSVGGAEYDYWGQGTQVTVSS	high polyreactivity
QVQLVESGGGLVQAGGSLRLSCAASGSNFLFNAMGWYRQAPGKERELVAAINRDDSTYYADSVKGRFTISRDNAKNTVYLQMNSLKPEDTAVYYCARDYRYTIPYDYWGQGTQVNVSS	low polyreactivity
QVQLVESGGGLVQAGGSLRLSCAASGSNFLSYAMGWYRQAPGKERELVAAITGSGGNTYYADSVKGRFTISRDNAKHTVYLQMKSLKPEDTAVYYCSAVATRSNYWRGFYYWGQGTKVTVSS	high polyreactivity
QVQLVESGGGLVQAGGSLRLSCAASGSNFPINAMGWYRQAPGKERELVAAISWRTGSTNYADSVKGRFTISRDNAMNTVYVQMNSLKPEDTAVFYCAASYATTRQRWLDYWGQGTQVTVSS	high polyreactivity
QVQLVESGGGLVQAGGSLRLSCAASGSNFQVNAMGWYRQAPGKERELVASIDSSGGSTYYADSVKGRFTISRDNAKNTVYLQMNSLKPEDTAVFYCAAEYHHYYYYWGEYWGQGTQVTVSS	low polyreactivity
QVQLVESGGGLVQAGGSLRLSCAASGSNFRANAMGWYRQATGKERELVAAISKSGGSTYYADSVKGRFRISRDNAKNTVYLQMNSLKPEDTGVYYCAARTTYLYGMYYWGQGTQVTVSS	low polyreactivity
QVQLVESGGGLVQAGGSLRLSCAASGSNFRYYAMGWYRQAPGTERELVADISSGGSTYYADSVKGRFTISRDNAKNTVYLQMNRLKPEDTAVYYCKADYYAYPWTNDYWGQGTQVTVSS	high polyreactivity
QVQLVESGGGLVQAGGSLRLSCAASGSNFSSYALGWYRQAPGKERELVAAITSGGSTYYADSVKARFTISRDNAKNTVYLQMNSLKPEDTAVYYCNADISRDNDFDYWGQGTQVTVSS	low polyreactivity
QVQLVESGGGLVQAGGSLRLSCAASGSNFSSYAMGWYREAPGKERELVAAIDGSGGSTYADSVKGRFTISRDNAKNTVYLQMNSLKPEDTAVYYCAVDSFLVYSAVRPYDYWGQGTQVTVSS	low polyreactivity
QVQLVESGGGLVQAGGSLRLSCAASGSNFSTYVMGWYRQAPGKERELVATISASDGSTYYADSVKGRFTISRDNAKNTVYLQMNSLKPEDSAVYYCAADTQEYRPTYDYWGQGTQVTVSS	low polyreactivity
QVQLVESGGGLVQAGGSLRLSCAASGSNFSYYDMGWYRQAPGKERELVAAISWNGGTTYYADSVKGRFTISRDNAKNTVYLQMNSLKPEDTAVYYCAATWDFYWAPYDSWGQGTQVTVSS	low polyreactivity
QVQLVESGGGLVQAGGSLRLSCAASGSNFSYYTMGWYRQAPGKERELVAAISTSGGSTYYADSVKGRFTISRDNAKNTVYLQMNSLKPEDTAVYYCAARYGRYYKYNYWGQGTQVTVSS	high polyreactivity
QVQLVESGGGLVQAGGSLRLSCAASGSNFTQYAMGWYRQAPGTERELVAAISSGTRTYYADSVKGRFTISRDNAKNTVYVQMNSLKPEDTAVYYCAARYRSYFYWSGYWGHGTQVTVSS	low polyreactivity
QVQLVESGGGLVQAGGSLRLSCAASGSNFTSYAMGWYRQAPGKERELVAAISKSGGSTYYADSVKGRFTISRDNAKNTVYLQMNSLKPEDTAVFYCAARYNVRSYTTSRFDYWGQGTQVTVSS	low polyreactivity
QVQLVESGGGLVQAGGSLRLSCAASGSNFTVYAMGWYRQAPGKDGELVAAISYNGGCTYYADSVKGRFTISRDNAKNTVYLQMNSLKPEDTAVYYCAARYRDRGRRAEYEYWGQGTQVTVSS	high polyreactivity
QVQLVESGGGLVQAGGSLRLSCAASGSNFVPYTMGWYRQAPGKERELVASISYSVGTTYYADSVKGRFTISRDNAKNTVYLQMNSLKPEDTAVYYCAADWDESYSYRRYRHYDYWGQGTQVTVSS	low polyreactivity
QVQLVESGGGLVQAGGSLRLSCAASGSNFVYNAMGWYRPAPGKERELVAAITGRVGSTYYADSVKGRFTISRDNAKNTVYLQMISLKPEDTAVYYCAARSYFKWWYAMDYWGQGTQVSVSS	high polyreactivity
QVQLVESGGGLVQAGGSLRLSCAASGSNFYFYAMGWYRQAPGKERELVAAISFTDTSTYYADSVKGRFTISRDNAKNTVYLQMNSLKPEDTAVYYCAADFTQYYYWTRYEYWGQGTQVTVSS	high polyreactivity
QVQLVESGGGLVQAGGSLRLSCAASGSNIGWNTMGWYRQAPGKERELVAAITSGGRTYYADSVKGRFTISRDNAKNTVYLQINSLKPEDTAVYYCKAVVRHTYRRFDYWGQGTQVTVSS	high polyreactivity
QVQLVESGGGLVQAGGSLRLSCAASGSNIGWYAMGSYRQAPGKERELVAAISSSDGSTYYADSVKGRFTISRDNAKNTVYLQMNSLKPEDTAVYYCATDSDFTYAQYDYWGQGTQVTVSS	low polyreactivity
QVQLVESGGGLVQAGGSLRLSCAASGSNISNYVMGWYRQAPWKERELVAAITRRGGRTYYADSVKGRFTISRDYAKNTFYLQMNSLKPEDTAVYYCAKRHVGSRYLFEYWGQGTQVTVSS	low polyreactivity
QVQLVESGGGLVQAGGSLRLSCAASGSNITTYAMGWYRQAPGKERELVAAITDTSSTNYADSVKGRFTISRDNAKNTVYLQMNSLKPEVTAVYYCAVDLGYEYDWGQGTQVTVSS	low polyreactivity

Sequence	polyreactivity (PSR sort gate)
QVQLVESGGGLVQAGGSLRLSCAASGSNIYVYAMGWYRQAPGKERELVAAISSSSDSTYADSVKGRFTISRDNAKNTVYLQMNSLKPEDTAVYYCNKKNAVYFAYDYWGQGTQVTVSS	low polyreactivity
QVQLVESGGGLVQAGGSLRLSCAASGSNSSFYAMGWYRQAPGKERELVAGITSGGSTNYADSVKGRFTISRDNAKNTVYLQLNSLKPEDTAVYYCAAERTPSFRAYDYWGQGTLVTVSS	low polyreactivity
QVQLVESGGGLVQAGGSLRLSCAASGSNYSGYTMGWYRQAPGKERELVAAISYRGGRTYYADSVKGRFTISRDNAKNTVYFLMNSLKPEDTAVYYCNAAPYITRRHDYWGQGTLVTVSS	high polyreactivity
QVQLVESGGGLVQAGGSLRLSCAASGSNYYVYPMGWYRQAPGKERELVATISTGGSTYYADSVKGRFTISRDNAKNTVYLQMNSLKPEDTAVYYCNAQITPRYWGGYDSWGQGTQVTVSS	low polyreactivity
QVQLVESGGGLVQAGGSLRLSCAASGSPFFRNAMGWYRPAPGTERELVADISASGGSTYYADSVKGRFTLSRDNAKNTVNLQMNSLKPEDTAVYSCNALYIYSYNYLTMDYWGQGTQVTVSS	low polyreactivity
QVQLVESGGGLVQAGGSLRLSCAASGSPFSSYVMGWYRQAPGTERELVAAISSIGGSTYSADSVKGRFTISRDNAKNTVFLQLNSLKPEDTAVYYCNALYDVWITLHTYTSSDYWGEGTQVTVSS	low polyreactivity
QVQLVESGGGLVQAGGSLRLSCAASGSSFDVYTMGWYRQAPGKERELVAAINTGGGSTYYADSVKGRFTISRDNAKNTVYLQMNSLKPEDTAVYYCAASVYHYGPLYYWGQGTQVTVSS	low polyreactivity
QVQLVESGGGLVQAGGSLRLSCAASGSSFGRYVMGSYRPAPGKERELVAAIRSRGGSTYYADSVKGRFTISRDIAKNTVYLQMNSLKPEYTAVYYCNDVDRKPYRTYDYWGQGTQVTVSS	high polyreactivity
QVQLVESGGGLVQAGGSLRLSCAASGSSFGWYGMGWYRQAPGKERELVASINWRGSSTYYADSVKGRFTISRDNSKNTVYLQMNSLKPEDTAVYYCATTRDWAYNYWGQGTQVTVSS	low polyreactivity
QVQLVESGGGLVQAGGSLRLSCAASGSSLDYYAMGWSRQAPGKERDLLAAITWSGGRTSYADSVTGRFTISRDNAKNTVYLQMNSLKPEDTAVYYGAAESFLYLLDRASGWQYEYWGQGTQVSVSS	low polyreactivity
QVQLVESGGGLVQAGGSLRLSCAASGSTCARNSMGWYRQAPGKERELVAAISYSGGTTYYADSVKGRFTISRDNAKNTVYLQRNSLKPEDTAVSYCAKWEGHGRNPWGAGTEGDYWGQGTQVTVSS	low polyreactivity
QVQLVESGGGLVQAGGSLRLSCAASGSTCWFYAMGWYRQAPGKEREVVATITSGGNTTYADSVKGRFTISRDNAKNTVYLQMNSLKPEDTAVYYCAAGWQAPWGYYYHFEYDYWGQGTQVTVSS	low polyreactivity
QVQLVESGGGLVQAGGSLRLSCAASGSTCWSYAMGWYRQAPGKERELVATITRAGTTNYADSVKGRFTISRDNAKNTVSLQRNSLNPEDTAVYYCAKRIFRWPYQGSYSFIPFGYWGQGTQVTVSS	high polyreactivity
QVQLVESGGGLVQAGGSLRLSCAASGSTFAANAMGWYRQAPGKERELVAVIRRGGSTTYADSVKGRFTISRDNAKNTVYLLMNSLKPEDTAVYYCNARVTLGRPLFTYLVRYEYWGQGTQVTVSS	high polyreactivity
QVQLVESGGGLVQAGGSLRLSCAASGSTFAAYVMGWYRQAPGKERELVAAITKSGSSTYYADSVKGRFTISRDNAKNTVYLQMNSLKPEDTAVEYCAAYPVRVLYDYWGQGTQVTVSS	high polyreactivity
QVQLVESGGGLVQAGGSLRLSCAASGSTFADYAMGWYRQAPGKERELVAAISWSGGRTYYADSVKGRFTISRDNAKNTVYLQMNSLKPEDTAVYYCAAGFGDGPGNGYYTRYSWDDDYWGQGTQVTVSS	low polyreactivity
QVQLVESGGGLVQAGGSLRLSCAASGSTFAEYAMGWYRQAPGKERELVAAIRWSGGSTSYADSVKGRFTMSRDNAKHTVYLQMNSLKPEDTAVYYCAAERFWYDGAVKLYVLSYYWGQGTQVTVSS	low polyreactivity
QVQLVESGGGLVQAGGSLRLSCAASGSTFAEYVMGWYRQAPGKERELVAAISSGTSTYYADSVKGRFTISRDNAKNTVYLQMNSLKPEDTAVYYCNDDLYHTWYKPEYDYWGQGTQVTVSS	low polyreactivity
QVQLVESGGGLVQAGGSLRLSCAASGSTFAFNAMGWYRQAPGKEREFVARITWSDGSTYYADSVKGRFTISRDNAKNSVYLQMNSLKPEDTAVYYCARDPTEQAIARWTYDYWGQGTQVTVSS	low polyreactivity
QVQLVESGGGLVQAGGSLRLSCAASGSTFAFYAMGWYRQAPGKERELVAAISRSGGRTYYADSVKGRFTISRDNAKNTVYLQMNSLKPEDTAVYYCAAVFRSGYLRYYYWGQGTQVTVSS	high polyreactivity
QVQLVESGGGLVQAGGSLRLSCAASGSTFAFYDMGWYRQAPGKERELVAAISPSDGDTYYADSVKGRFTISRDNAKNTVYLQMNSLKPEDTAVYYSAAETSHNPEYERGSDYWGQGTQVTVSS	low polyreactivity
